This is an account of results in patent US20260035475A1 (BIOARCTIC, published 2026).

The target of assay [1] is T1, chimeric TfR1 consisting of human protease like domain grafted on mouse TfR1 ectodomain (SEQ ID NO:78) (human/mouse chimera).
T1 construct: His-tagged; also called h/m protease-like domain chimera
T1 chain: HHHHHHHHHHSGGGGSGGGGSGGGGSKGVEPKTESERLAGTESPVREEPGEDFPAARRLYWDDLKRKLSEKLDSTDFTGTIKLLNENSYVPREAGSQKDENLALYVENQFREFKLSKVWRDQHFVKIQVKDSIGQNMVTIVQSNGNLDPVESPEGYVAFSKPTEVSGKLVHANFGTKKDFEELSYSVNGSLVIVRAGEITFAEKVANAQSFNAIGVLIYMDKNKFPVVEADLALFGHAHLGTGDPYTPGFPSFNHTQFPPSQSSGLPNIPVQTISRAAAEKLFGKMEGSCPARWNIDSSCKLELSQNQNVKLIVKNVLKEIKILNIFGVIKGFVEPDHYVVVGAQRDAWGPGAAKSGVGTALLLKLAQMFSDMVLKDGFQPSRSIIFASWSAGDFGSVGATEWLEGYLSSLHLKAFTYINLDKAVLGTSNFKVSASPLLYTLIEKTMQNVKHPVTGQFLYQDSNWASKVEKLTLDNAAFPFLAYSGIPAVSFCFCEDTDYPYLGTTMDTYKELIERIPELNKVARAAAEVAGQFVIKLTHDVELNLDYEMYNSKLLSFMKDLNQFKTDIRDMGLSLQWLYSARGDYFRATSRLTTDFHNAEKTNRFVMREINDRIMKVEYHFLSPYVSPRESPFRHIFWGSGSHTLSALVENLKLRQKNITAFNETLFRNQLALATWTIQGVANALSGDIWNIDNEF
Description: indirect ELISA on coated h/m protease-like domain chimera (1 ug/ml), IgG dilution series; x axis printed 'TfR (ng/ml)' [D]. The method, then: Plasma samples serially diluted from a starting dilution of 1/450 or hybridoma supernatants diluted 1/2 were added to the plates (50 μl/well; dilution buffer: PBS with 0.1% BSA and 0.05% TWEEN®-20) and incubated for 2 h at room temperature and then the plates were washed four times. […] After another wash (as above), 50 μl/well TMB substrate (K-Blue® Aqueous, Neogen) was added, and the reaction was stopped after 10-15 min with 50 μl/well of 0.5 M H₂SO₄. The optical density at 450 nm was read using a plate reader (Tecan). The endpoint titers were defined as the dilution above the average of the blank wells (background) plus 3 standard deviations of the blank wells.
The coated plates were then blocked. Dilution series of mouse IgG of the analyzed antibodies were prepared in PBS and incubated on the ELISA plates. Unbound antibodies were then washed off before incubating wells with a HRP-conjugated secondary, anti-mouse-IgG for 1 h. Plates were then washed again before addition of HRP substrate TMB for development and detection of antibody binding to the wells. TMB development was stopped by adding 0.5 M H₂SO₄ to the wells and ELISA responses measured as the OD at 450 nm in an ELISA plate reader.
(In general: In an ELISA, binding on a coated surface is turned into a signal by an enzyme label.)

The target of assay [2] is T2, ectodomain of human TfR1 (His10-hTfR1; SEQ ID NO:74) (human, UniProt P02786 89-760).
T2 construct: His-tagged ectodomain; also called ectodomain of hTfR1
Kind of assay: indirect ELISA on coated hTfR1 ectodomain (1 ug/ml), Fab 1:3 dilutions, anti-human IgG F(ab')2-HRP [lower panel]. The method, then: For the indirect ELISA, half area 96-well plates (Corning, #3690) were coated with 1 μg/ml recombinant ectodomain of hTfR1 (SEQ ID NO:74) in PBS overnight at 4° C. The coated plates were blocked using Pierce protein-free blocking solution (Thermo Fisher Scientific, #37572) for 1 h at room temperature with shaking and washed four times in PBS containing 0.1% TWEEN-20. Serial dilutions (1:3) of various expressed constructs in incubation buffer (1% BSA, 0.1% TWEEN-20 in PBS) were incubated for 1 h at room temperature. […] Following four wash steps, K-Blue® Aqueous TMB substrate (Neogen, #331177) was added to the wells for 15 min at room temperature before the reaction was stopped with 1:1 dilution of 0.5 M H₂SO₄. The optical density at 450 nm was recorded (Spark, Tecan) and background signal was subtracted before analysis.

Usually EC50 (read off the curve) stands for the midpoint of the concentration-response curve. The low end stands for higher potency in that assay, the high end for lower potency in that assay.

T2 sequence (P02786 other isoform, or with tags, fused parts or gaps): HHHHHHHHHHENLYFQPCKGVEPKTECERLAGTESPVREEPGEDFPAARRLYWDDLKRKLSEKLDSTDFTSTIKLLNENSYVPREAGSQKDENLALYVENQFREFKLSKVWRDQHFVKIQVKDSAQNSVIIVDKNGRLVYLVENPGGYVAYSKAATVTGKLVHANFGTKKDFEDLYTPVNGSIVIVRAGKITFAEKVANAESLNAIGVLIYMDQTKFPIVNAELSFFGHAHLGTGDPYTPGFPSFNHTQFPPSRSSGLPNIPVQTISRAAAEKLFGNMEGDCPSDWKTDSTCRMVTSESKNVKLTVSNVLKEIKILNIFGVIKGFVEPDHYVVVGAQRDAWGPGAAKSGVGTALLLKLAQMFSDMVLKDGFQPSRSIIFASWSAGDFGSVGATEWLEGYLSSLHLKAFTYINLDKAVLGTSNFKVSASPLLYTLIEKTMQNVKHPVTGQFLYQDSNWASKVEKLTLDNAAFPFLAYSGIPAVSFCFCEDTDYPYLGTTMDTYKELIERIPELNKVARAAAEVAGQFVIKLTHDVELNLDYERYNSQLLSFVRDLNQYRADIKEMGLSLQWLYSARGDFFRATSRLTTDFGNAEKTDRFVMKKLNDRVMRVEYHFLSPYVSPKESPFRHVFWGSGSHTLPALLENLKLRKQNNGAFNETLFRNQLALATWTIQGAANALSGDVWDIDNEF

B1: 26D3 (mouse monoclonal antibody) (antibody, V domains shown)
VH: EVQLQQFGVELVKPGASVKISCKASGYIFTDYNMDWVKQSHGKSLEWIGDINPDYDTTSYNEKFKGKATLTVDKSSSTAYMELRSLTSEDTAVYYCARGGYSGSSYYHPMDYWGQGTSVTVSS
VL: DIVMSQSPSSLAVSVGEKITMSCKSSQSLLYSTNQKNYLAWYQQKPGQSPELLIYWASTRESGVPDRFTGSGSGTDFTLTISNVRAEDLAVYYCQQYFIYPRTFGGGTKLEIK
Regarding B1, the binding result in assay [1] is recorded as “binds”.

B2: h26D3-Fab (humanized 26D3) (Fab, V domains shown)
VH: EVQLVQSGAEVKKPGSSVKVSCKASGYIFTDYNMDWVRQAPGQGLEWIGDINPDYDTTSYNEKFKGRATLTVDKSTSTAYMELSSLRSEDTAVYYCARGGYSGSSYYHPMDYWGQGTLVTVSS
VL: DIQMTQSPSSVSASVGDRVTITCKSSQSLLYSTNQKNYLAWYQQKPGKAPKLLIYWASTRESGVPSRFSGSGSGTDFTLTISSLQPEDFATYYCQQYFIYPRTFGQGTKVEIK
notes: His-tagged Fab
For B2, the “EC50 (read off the curve)” value in assay [2] is around 0.4 µM.

B3: h26D3 variant HC10 Fab (VH Y106A) (Fab, V domains shown)
VH: EVQLVQSGAEVKKPGSSVKVSCKASGYIFTDYNMDWVRQAPGQGLEWIGDINPDYDTTSYNEKFKGRATLTVDKSTSTAYMELSSLRSEDTAVYYCARGGYSGSSAYHPMDYWGQGTLVTVSS
VL: DIQMTQSPSSVSASVGDRVTITCKSSQSLLYSTNQKNYLAWYQQKPGKAPKLLIYWASTRESGVPSRFSGSGSGTDFTLTISSLQPEDFATYYCQQYFIYPRTFGQGTKVEIK
notes: Single mutant, His-tagged Fab
Turning to B3, the “EC50 (read off the curve)” value in assay [2] was around 1 µM.

B4: 24B4 (mouse monoclonal antibody) (antibody, V domains shown)
VH: EVQLQQFGAELVKPGTSVKISCKASGYTFTDYNMDWVKQGHGKGLEWIGDINPNYDTTSYSQKFKGKATLTVDKSSSTAYMELRSLTSEDTAVYYCARSEAGNYYWYFDVWGAGTTVTVSS
VL: DIVMSQSPSSLAVSVGEKVTMSCKSSQSLLYSSNRKNYLAWYRQKPGQSPKLLIYWASTRESGVPDRFTGSGSGTDFTLTISSVKAEDLAVYSCQQYYNYPYTFGGGTKLEIK
As to B4, the binding result in assay [1] is given as “binds”.
